Results on eight molecules are retold here after patent US20260193348A1 (ANTENGENE BIOLOGICS, published 2026).

In experiment [1] the target is T1, GPRC5D on multiple myeloma cells (human, UniProt Q9NZD1 1-345).
T1 construct: whole, on cells; Endogenous GPRC5D on multiple myeloma cell lines; also called G-protein coupled receptor family C group 5 member D; MM.1S, MOLP-8, L363, RPMI8226 cells
Nature of the experiment: FACS on MM.1S cells.

Experiment [2] concerns the target T2, CD3 on T cells / Jurkat cells (human, UniProt P07766 23-207; P04234 22-171; P09693 23-182).
T2 construct: whole, on cells; Native CD3 complex on CD3+ T cells isolated from normal donors or on Jurkat cells; also called human CD3; CD3+ T cells
Briefly: FACS on Jurkat cells.

T2 sequence (P07766 23-207, chain 1 of 3): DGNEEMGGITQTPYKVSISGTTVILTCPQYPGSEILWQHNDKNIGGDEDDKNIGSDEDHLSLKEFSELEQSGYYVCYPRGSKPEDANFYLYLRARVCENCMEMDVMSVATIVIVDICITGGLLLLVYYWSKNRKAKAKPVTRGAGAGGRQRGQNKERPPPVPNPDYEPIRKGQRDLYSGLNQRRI
T2 sequence (P04234 22-171, chain 2 of 3): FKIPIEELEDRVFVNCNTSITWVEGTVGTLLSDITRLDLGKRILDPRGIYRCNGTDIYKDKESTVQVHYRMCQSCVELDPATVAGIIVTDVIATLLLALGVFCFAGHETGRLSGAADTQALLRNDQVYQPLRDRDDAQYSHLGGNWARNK
T2 sequence (P09693 23-182, chain 3 of 3): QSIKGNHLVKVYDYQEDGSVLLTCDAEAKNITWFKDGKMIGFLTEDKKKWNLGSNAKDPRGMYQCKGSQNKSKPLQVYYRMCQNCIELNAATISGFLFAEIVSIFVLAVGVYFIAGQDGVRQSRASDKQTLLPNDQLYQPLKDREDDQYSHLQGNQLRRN
T1 sequence (Q9NZD1 whole entry): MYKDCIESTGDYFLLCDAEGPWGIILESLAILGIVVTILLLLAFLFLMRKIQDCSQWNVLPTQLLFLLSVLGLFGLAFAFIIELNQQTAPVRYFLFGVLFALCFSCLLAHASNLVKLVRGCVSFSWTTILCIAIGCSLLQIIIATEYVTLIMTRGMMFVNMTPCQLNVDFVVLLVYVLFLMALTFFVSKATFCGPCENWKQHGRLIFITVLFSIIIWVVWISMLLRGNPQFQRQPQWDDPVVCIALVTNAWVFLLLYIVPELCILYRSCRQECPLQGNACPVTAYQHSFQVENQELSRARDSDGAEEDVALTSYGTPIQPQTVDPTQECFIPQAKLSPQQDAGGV

B1: Bis-40E9-L2H10 (bispecific antibody)
VH: EVQLVQSGAEVKKPGASVKVSCKASGYTFTSYVIHWVRQAPGQGLEWMGYFNPYNDGTKYNEEFKGRVTLTSDKSTSTAYMELRSLRSDDTAVYYCARGGVRRYFDVWGQGTTVTVSS
VL: DIQMTQSPSSLSASVGDRVTITCRASQDIGSNLNWLQQKPGKAIKRLIYATFGLDSGVPSRFSGSRSGTDFTLTISSLQPEDFATYYCQQYASFPYTFGGGTKVEIK
scFv: EVQLVQSGAEVKKPGSSVKVSCKASGYTFSSYVIHWVRQAPGQCLEWMGYINPYNDVIKYNEKFKGRVTLTSDKSTSTAYMELSSLRSEDTAVYYCARDSYYSYEAFAYWGQGTLVTVSSGGGGSGGGGSGGGGSGGGGSEIVLTQSPDFQSVTPKEKVTITCSASSSVSYMHWYQQKPDQSPKRLIYDTSKLASGVPSRFSGSGSGTDFTLTINSLEAEDAATYYCQQWSSNPPTFGCGTKVEIK
notes: L234A/L235A
In the case of B1, the binding result in experiment [1] and in experiment [2] was “binds” in each case.

B2: Bis-108+ch147 (bispecific antibody, V domains shown)
VH 1: EVQLVQSGAEVKKPGASVKVSCKASGYTFTSYVIHWVRQAPGQGLEWMGYFNPYNDGTKYNEEFKGRVTLTSDKSTSTAYMELRSLRSDDTAVYYCARGGVRRYFDVWGQGTTVTVSS
VL 1: DIQMTQSPSSLSASVGDRVTITCRASQDIGSNLNWLQQKPGKAIKRLIYATFGLDSGVPSRFSGSRSGTDFTLTISSLQPEDFATYYCQQYASFPYTFGGGTKVEIK
VH 2: QVQLQQPGTELVKPGTSVKLSCKASGYTFTSYWMHWVKQRPGQCLEWIGNINPSNGATNYNEKFKSKATLTVDKSSSTAYMQLSSLTSEDSAVYYCARDRSSQYYFDYWGQGTTLTVSS
VL 2: DIVMSQSPSSLAVSAGEKVTMSCKSSQSLLNSRSRKNYLAWYQQKPGQSPKLLIYWASTRESGVPDRFTGSGSGTDFTLTISSVQAEDLAVYYCTQSYTLRTFGCGTKLEIK
notes: Fab-scFv-Fab (2+1): two humanized anti-GPRC5D Fabs (first VH/VL) and one anti-CD3 scFv (second VH/VL, parental clone 147E11E2)
On to B2, for which the binding result in experiment [1] and in experiment [2] was “binds” throughout.

B3: Bis-40E9-L2H14 (bispecific antibody)
VH: EVQLVQSGAEVKKPGASVKVSCKASGYTFTSYVIHWVRQAPGQGLEWMGYFNPYNDGTKYNEEFKGRVTLTSDKSTSTAYMELRSLRSDDTAVYYCARGGVRRYFDVWGQGTTVTVSS
VL: DIQMTQSPSSLSASVGDRVTITCRASQDIGSNLNWLQQKPGKAIKRLIYATFGLDSGVPSRFSGSRSGTDFTLTISSLQPEDFATYYCQQYASFPYTFGGGTKVEIK
scFv: EVQLVQSGAEVKKPGSSVKVSCKASGYTFSSYVIHWVRQAPGQCLEWMGYINPYNDVIKYNEKFKGRVTLTSDKSTSTAYMELSSLRSEDTAVYYCARESYYSYDGFAYWGQGTLVTVSSGGGGSGGGGSGGGGSGGGGSEIVLTQSPDFQSVTPKEKVTITCSASSSVSYMHWYQQKPDQSPKRLIYDTSKLASGVPSRFSGSGSGTDFTLTINSLEAEDAATYYCQQWSSNPPTFGCGTKVEIK
notes: L234A/L235A
B3: the binding result in experiment [1] and in experiment [2] was “binds” in each case.

B4: Bis-40E9-L5H7 (bispecific antibody)
VH: EVQLVQSGAEVKKPGASVKVSCKASGYTFTSYVIHWVRQAPGQGLEWMGYFNPYNDGTKYNEEFKGRVTLTSDKSTSTAYMELRSLRSDDTAVYYCARGGVRRYFDVWGQGTTVTVSS
VL: DIQMTQSPSSLSASVGDRVTITCRASQDIGSNLNWLQQKPGKAIKRLIYATFGLDSGVPSRFSGSRSGTDFTLTISSLQPEDFATYYCQQYASFPYTFGGGTKVEIK
scFv: EVQLVQSGAEVKKPGSSVKVSCKASGYTFSSYVIHWVRQAPGQCLEWMGYINPGNGVIKYNEKFKGRVTLTSDKSTSTAYMELSSLRSEDTAVYYCARDSYSSYDGFAYWGQGTLVTVSSGGGGSGGGGSGGGGSGGGGSEIVLTQSPDFQSVTPKEKVTITCSASSSVSYMHWYQQKPDQSPKRLIYDTSKLASGVPSRFSGSGSGTDFTLTINSLEAEDAATYYCQQWRSSPPTFGCGTKVEIK
notes: L234A/L235A
In the case of B4, the binding result in experiment [1] and in experiment [2] was “binds” throughout.

B5: Bis-40E9-L2H6 (bispecific antibody)
VH: EVQLVQSGAEVKKPGASVKVSCKASGYTFTSYVIHWVRQAPGQGLEWMGYFNPYNDGTKYNEEFKGRVTLTSDKSTSTAYMELRSLRSDDTAVYYCARGGVRRYFDVWGQGTTVTVSS
VL: DIQMTQSPSSLSASVGDRVTITCRASQDIGSNLNWLQQKPGKAIKRLIYATFGLDSGVPSRFSGSRSGTDFTLTISSLQPEDFATYYCQQYASFPYTFGGGTKVEIK
scFv: EVQLVQSGAEVKKPGSSVKVSCKASGYTFSSYVIHWVRQAPGQCLEWMGYINPYNDVIKYNEKFKGRVTLTSDKSTSTAYMELSSLRSEDTAVYYCARESFSSYDGFAYWGQGTLVTVSSGGGGSGGGGSGGGGSGGGGSEIVLTQSPDFQSVTPKEKVTITCSASSSVSYMHWYQQKPDQSPKRLIYDTSKLASGVPSRFSGSGSGTDFTLTINSLEAEDAATYYCQQWSSNPPTFGCGTKVEIK
notes: L234A/L235A
In the case of B5, the binding result in experiment [1] and in experiment [2] was “binds” throughout.

B6: Bis-40E9-L2H7 (bispecific antibody)
VH: EVQLVQSGAEVKKPGASVKVSCKASGYTFTSYVIHWVRQAPGQGLEWMGYFNPYNDGTKYNEEFKGRVTLTSDKSTSTAYMELRSLRSDDTAVYYCARGGVRRYFDVWGQGTTVTVSS
VL: DIQMTQSPSSLSASVGDRVTITCRASQDIGSNLNWLQQKPGKAIKRLIYATFGLDSGVPSRFSGSRSGTDFTLTISSLQPEDFATYYCQQYASFPYTFGGGTKVEIK
scFv: EVQLVQSGAEVKKPGSSVKVSCKASGYTFSSYVIHWVRQAPGQCLEWMGYINPGNGVIKYNEKFKGRVTLTSDKSTSTAYMELSSLRSEDTAVYYCARDSYSSYDGFAYWGQGTLVTVSSGGGGSGGGGSGGGGSGGGGSEIVLTQSPDFQSVTPKEKVTITCSASSSVSYMHWYQQKPDQSPKRLIYDTSKLASGVPSRFSGSGSGTDFTLTINSLEAEDAATYYCQQWSSNPPTFGCGTKVEIK
notes: L234A/L235A
With B6, the binding result in experiment [1] and in experiment [2] was “binds” each time.

B7: Bis-40E9-L2H16 (bispecific antibody)
VH: EVQLVQSGAEVKKPGASVKVSCKASGYTFTSYVIHWVRQAPGQGLEWMGYFNPYNDGTKYNEEFKGRVTLTSDKSTSTAYMELRSLRSDDTAVYYCARGGVRRYFDVWGQGTTVTVSS
VL: DIQMTQSPSSLSASVGDRVTITCRASQDIGSNLNWLQQKPGKAIKRLIYATFGLDSGVPSRFSGSRSGTDFTLTISSLQPEDFATYYCQQYASFPYTFGGGTKVEIK
scFv: EVQLVQSGAEVKKPGSSVKVSCKASGYTFSDYVIHWVRQAPGQCLEWMGYINPYNDVIKYNEKFKGRVTLTSDKSTSTAYMELSSLRSEDTAVYYCARDSYYSYDGFAYWGQGTLVTVSSGGGGSGGGGSGGGGSGGGGSEIVLTQSPDFQSVTPKEKVTITCSASSSVSYMHWYQQKPDQSPKRLIYDTSKLASGVPSRFSGSGSGTDFTLTINSLEAEDAATYYCQQWSSNPPTFGCGTKVEIK
notes: L234A/L235A
In the case of B7, the binding result in experiment [1] and in experiment [2] was “binds” in each case.

B8: Bis-40E9-L2H11 (bispecific antibody)
VH: EVQLVQSGAEVKKPGASVKVSCKASGYTFTSYVIHWVRQAPGQGLEWMGYFNPYNDGTKYNEEFKGRVTLTSDKSTSTAYMELRSLRSDDTAVYYCARGGVRRYFDVWGQGTTVTVSS
VL: DIQMTQSPSSLSASVGDRVTITCRASQDIGSNLNWLQQKPGKAIKRLIYATFGLDSGVPSRFSGSRSGTDFTLTISSLQPEDFATYYCQQYASFPYTFGGGTKVEIK
scFv: EVQLVQSGAEVKKPGSSVKVSCKASGYTFSSYVIHWVRQAPGQCLEWMGYINPYNDVIKYNEKFKGRVTLTSDKSTSTAYMELSSLRSEDTAVYYCARDSYYSYRAFAYWGQGTLVTVSSGGGGSGGGGSGGGGSGGGGSEIVLTQSPDFQSVTPKEKVTITCSASSSVSYMHWYQQKPDQSPKRLIYDTSKLASGVPSRFSGSGSGTDFTLTINSLEAEDAATYYCQQWSSNPPTFGCGTKVEIK
notes: L234A/L235A
With B8, the binding result in experiment [1] and in experiment [2] was “binds” throughout.
